Measured values as given in patent publication US20140193421A1 (EISAI R AND D MANAGEMENT, published 2014).
Where no end group is shown, it is not given here. The star is where a group is joined. Biotin = O=C1N[C@H]2[C@H](CS[C@H]2CCCCC(=O)*)N1

T1: human XCR1-EGFP (human, UniProt P46094 1-333, EGFP fused to the receptor is not carried in the letters.)
T1 sequence: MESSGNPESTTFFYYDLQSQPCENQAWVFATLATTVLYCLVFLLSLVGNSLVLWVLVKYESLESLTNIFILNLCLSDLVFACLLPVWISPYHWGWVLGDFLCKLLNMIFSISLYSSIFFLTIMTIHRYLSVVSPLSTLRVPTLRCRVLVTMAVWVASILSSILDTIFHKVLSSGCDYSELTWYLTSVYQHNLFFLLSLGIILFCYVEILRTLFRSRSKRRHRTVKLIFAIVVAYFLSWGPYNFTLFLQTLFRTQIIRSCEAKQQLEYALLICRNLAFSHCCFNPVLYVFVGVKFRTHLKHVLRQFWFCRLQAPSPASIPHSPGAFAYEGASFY

T2: human XCR1 peptide 11-22 TFFYYDLQSQPC (human)
T2 peptide: Biotin-GSGSTFFYYDLQSQPC

T3: human XCR1 peptide 19-30 SQPCENQAWVFA (human)
T3 peptide: Biotin-GSGSSQPCENQAWVFA

T4: human XCR1 peptide 172-183 SSGCDYSELTWY (human)
T4 peptide: Biotin-GSGSSSGCDYSELTWY

T5: human XCR1 peptide 175-186 CDYSELTWYLTS (human)
T5 peptide: Biotin-GSGSCDYSELTWYLTS

B1: mouse anti-human XCR1 antibody (11H2) (antibody, IgG2a, V domains shown)
VH: EVQLQQSGPVLVKPGASVKMSCKASGYTFTDYYVNWVKQSHGASLEWIGVSNPKNGDKSYNQKFKGKATLTVDKSSSTAYMELNSLTSEDSAVYYCARGLYYAGTYGYFDVWGTGTTVTVSS
VL: DIQMTQATSSLSASLGDRVTISCRASQDISNYLNWYQQKPDGTVKLLIYYTSRLHSGVPSRFRGSGSGTDFSLTISNLEQEDIATYFCQQGKTLPRTLGGGTKLEIK
B2: mouse anti-human XCR1 antibody (2H6) (antibody, IgG2b, V domains shown)
VH: QAYLQQSGAELVRPGASVKMSCKASGYTFSSHNMHWIKQTLRQGLEWIGAIYPGKGNTSYNQKFKGKATLTVDKSSSTAYMQLSSLTSEDSAVYFCARWGSVVGDWYFDVWGTGTTVTVSS
VL: DVVVTQTPLSLPVSLGDQASISCRSSQSLVHSNGNTYLHWYLQKPGQSPKLLIYRVSNRFSGVPDRFSGSGLGRDFTLKISRVEAEDLGVYFCSQSTFVPWTFGGGTKLEIK
B3: mouse anti-human XCR1 antibody (5G7) (antibody, IgG2b, V domains shown)
VH: QAYLQQSGAELVRPGASVKMSCKASGYTFTSHNLHWVKQTPRQGLQWIGAIYPGNGNTAYNQKFKGKATLTVDKSSSTAYMQLSSLTSDDSAVYFCARWGSVVGDWYFDVWGTGTTVTVSS
VL: DVVMTQTPLSLPVTLGNQASIFCRSSLGLVHRNGNTYLHWYLQKPGQSPKLLIYKVSHRFSGVPDRFSGSGSGTDFTLKISRVEAEDLGVYFCSQSTHVPWTFGGGTKLEIK
notes: also called 5G7 Mab; parent antibody 5G7
B4: humanized anti-human XCR1 antibody HK1L2 (antibody, human IgG2, kappa, V domains shown)
VH: QVQLVQSGAEVKKPGASVKVSCKASGYTFTSHNLHWVRQAPGQRLEWMGAIYPGNGNTAYNQKFKGRVTITRDTSASTAYMELSSLRSEDTAVYYCARWGSVVGDWYFDVWGQGTLVTVSS
VL: DVVMTQSPLSLPVTLGQPASISCRSSLGLVHRNGNTYLHWFQQRPGQSPRLLIYKVSHRFSGVPDRFSGSGSGTDFTLKISRVEAEDVGVYYCSQSTHVPWTFGQGTKVEIKR
B5: humanized anti-human XCR1 antibody HK5L5 (antibody, human IgG2, kappa, V domains shown)
VH: QVQLVQSGAEVKKPGASVKVSCKASGYTFTSHNLHWVRQAPGQGLEWMGAIYPGNGNTAYNQKFKGRVTMTRDTSTSTVYMELSSLRSEDTAVYYCARWGSVVGDWYFDVWGQGTLVTVSS
VL: DIVMTQTPLSLPVTPGQPASISCRSSLGLVHRNGNTYLHWYLQKPGQSPQLLIYKVSHRFSGVPDRFSGSGSGTDFTLKISRVEAEDVGVYYCSQSTHVPWTFGQGTKVEIKR

Legend:
[1] = target: T1, human XCR1-EGFP; assay: cell-based or functional assay
[2] = target: T1, human XCR1-EGFP; assay: cell-based or functional assay; remark: listed apart in the source
[3] = target: T2, human XCR1 peptide 11-22 TFFYYDLQSQPC; assay: peptide ELISA on streptavidin plates
Description: (§1) Streptavidin-coated microtiter plates (Perkin Elmer) were coated with 50 μg/mL of peptide per well in a volume of 50 μL, and incubated at room temperature for 1 hour. The peptide solution was removed and PBS⁻ containing 4% Block-Ace was added to each well and incubated overnight at 4° C. Each well was washed three times with an ELISA wash buffer (0.02% Tween20 in PBS−). Anti-human XCR1 antibodies (2H6, 5G7, or 11H2) were added to each well in amount of 10 μg/mL, and incubated for 6 hours at room temperature. Each well was washed three times with the ELISA wash buffer. Horseradish peroxidase-conjugated donkey anti-mouse IgG antibody (Jackson, #715-035-150), diluted 1:5,000 in the ELISA wash buffer, was added to each well and incubated for 1 hour at room temperature. Each well was washed three times with the ELISA wash buffer. TMBZ (3,3′,5,5′ tetramethyl benzidine; Sigma) was added to each well and incubated at room temperature. The reaction was stopped with 2NH₂SO₄, and A₄₅₀ₙₘ was measured by Arvo plate reader (PerkinElmer).

[4] = target: T3, human XCR1 peptide 19-30 SQPCENQAWVFA; assay: peptide ELISA on streptavidin plates
Description: as §1

[5] = target: T4, human XCR1 peptide 172-183 SSGCDYSELTWY; assay: peptide ELISA on streptavidin plates
Description: as §1

[6] = target: T5, human XCR1 peptide 175-186 CDYSELTWYLTS; assay: peptide ELISA on streptavidin plates
Description: as §1

[7] = target: T1, human XCR1-EGFP; assay: competitive ligand binding assay, FACS on human XCR1-EGFP BaF3 cells; competitor human XCL1-SSS-His(10) at 0.12 µg/mL
Description: The competitive ligand binding assay was performed according to the following procedure. Parent BaF3 cells and human XCR1-EGFP-expressing BaF3 cells were mixed at a 1:1 ratio, and suspended in a FACS buffer (1% FBS-containing PBS⁻ (Sigma)). The cells were blocked for 10 minutes on ice with a FACS buffer containing 10% rat serum. The cells were then incubated for 20 minutes on ice with mouse anti-human XCR1 antibodies (2H6, 5G7, or 11H2), mouse isotype control antibodies, IgG2a (eBioscience, #16-4724-85), or IgG2b (eBioscience, #16-4732-85) at various concentrations from 0 to 150 μg/mL. Next the cells were incubated for 30 minutes on ice with human XCL1-SSS-His(10) at a saturating concentration of 0.12 μg/mL. The cells were washed with the FACS buffer three times, and then incubated for 20 minutes on ice with anti-6×His tag antibody (BETHYL, #A190-114A, diluted at 1:100 in FACS buffer). […] Next the cells were once again washed three times with the FACS buffer, and then suspended in FACS buffer. The fluorescence intensity was measured using a FACSCanto II cell analyzer (BD Bioscience).

[8] = target: T1, human XCR1-EGFP; assay: cell-based or functional assay; remark: listed apart in the source

| Binder | IC50 of growth suppression with saporin-conjugated Fab anti-mouse IgG secondary antibody [1] [nM] | concentration of complete inhibition of cell migration, chemotaxis assay [1] [µg/mL] | IC50 (nM), chemotaxis assay [2] [nM] | IC90 (nM), chemotaxis assay [2] [nM] | binding result [3] | binding result [4] | binding result [5] | binding result [6] | IC50 [7] [nM] | IC50 (nM), chemotaxis assay, Assay-1 [8] [nM] | IC50 (nM), chemotaxis assay, Assay-2 [8] [nM] | IC50 (nM), chemotaxis assay, Assay-3 [8] [nM] |
| --- | --- | --- | --- | --- | --- | --- | --- | --- | --- | --- | --- | --- |
| B1 | 0.155 | ~3 | 0.99 | 6.32 | no binding (tested: 10 µg/mL) | no binding (tested: 10 µg/mL) | no binding (tested: 10 µg/mL) | no binding (tested: 10 µg/mL) | 23.8 |  |  |  |
| B2 | 0.141 | ~3 | 1.28 | 7.6 |  |  |  |  | 37 |  |  |  |
| B3 | 0.017 | ~3 | 0.63 | 2.52 |  |  |  |  | 6.9 |  |  |  |
| B4 |  |  |  |  |  |  |  |  |  | 0.1 | 0.25 | 0.12 |
| B5 |  |  |  |  |  |  |  |  |  | 0.52 | 0.36 | 0.2 |
